Measurements published in the supplement of paper PMC12042874.
± gives the uncertainty stated by the source.

Assay: amyloid nucleation score (Sup35N fusion, yeast selection) (log enrichment); library NNK2; higher = more nucleation; inactive = no reads after selection
Procedure, shortened: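 The nucleation score is the log enrichment of output over input reads, calculated with DiMSum and centred on the mode score of non-aggregating sequences. Sequences with under 100 input reads were excluded. Reads came from Illumina sequencing of plasmid inserts from psi-negative yeast expressing Sup35N fused to peptides of 20 random codons, induced 24 hours with 100 μM copper sulfate and grown 7 days at 30°C without adenine and uracil.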
FLTGDFSAHMNLLIWIFEMS showed an amyloid nucleation score of 5.669 ± 0.05. With FLTLPVSPSTQFISDRGSAL the amyloid nucleation score was 2.64 ± 0.13. For FLVENCC, the amyloid nucleation score was -0.39 ± 0.64. With FLVFVLLGDR the amyloid nucleation score was 6.23 ± 0.07. With FLVFYLVCGSGLYMNNGQFF the amyloid nucleation score was -0.908 ± 0.41. With FLVLIQRKAQGITLQREGTW the amyloid nucleation score was 5.84 ± 0.069. For FLVMGLRYS, the amyloid nucleation score was 5.407 ± 0.052. FLVYTWSFRNSCRPDLKVVE gave an amyloid nucleation score of 0.126 ± 0.8. FMAWTDSLIYKHAICAATL showed an amyloid nucleation score of -0.031 ± 0.39. For FMPSVFMYSLVVFRYVVYMS, the amyloid nucleation score was -1.07 ± 0.78. Substance FMRQMLLVLMPWCQRRWACL has an amyloid nucleation score of -0.382 ± 0.32. For FMTFK, the amyloid nucleation score was 3.14 ± 0.13. FMVQSVFTKLGPSQAFRVHP gave an amyloid nucleation score of -0.14 ± 1. FNATIVDRDLRSRGQNRSLQ gave an amyloid nucleation score of 0.362 ± 0.65. Work on FNDLMYVNYLLCMVH yielded an amyloid nucleation score of 4.04 ± 0.095. Work on FNDSPSYWFSHYIAARSSVE yielded an amyloid nucleation score of -0.37 ± 0.36. With FNFIIAQE the amyloid nucleation score was -1.1 ± 1.1. FNGCFSCTMG gave an amyloid nucleation score of 8.109 ± 0.055. FNHLRSARILPGFFSFSRFK showed an amyloid nucleation score of -1.35 ± 0.54. Work on FNINSPTALSYFMVLEVPLV yielded an amyloid nucleation score of 2.42 ± 0.12. With FNKDMSNKFNSDKGELSSFM the amyloid nucleation score was “inactive”. FNLAPLMVIMPGIMGWGLLG gave an amyloid nucleation score of 1.67 ± 0.16. FNMFWVLGFTSRGTRGYSTS showed an amyloid nucleation score of 3.9 ± 0.051. Substance FNNVILSRV has an amyloid nucleation score of -1.5 ± 0.61. For FNSRL, the amyloid nucleation score was -0.208 ± 1. With FNWDNFSKLVAKNNLVISKL the amyloid nucleation score was “inactive”. In the case of FNYYLCTPIKVGTCPCVDFR, the amyloid nucleation score is reported as 7.17 ± 0.075. For FPARFHACLDYKWFGTGRPS, the amyloid nucleation score was 2.41 ± 0.12. Substance FPIVFTTKCDIFLSYSLLPS has an amyloid nucleation score of 1.7 ± 0.13. In the case of FPLLNCKRACLKAAVEAHYR, the amyloid nucleation score is reported as 0.076 ± 0.61. With FPLRLLWSGGALCATPPIRV the amyloid nucleation score was 0.655 ± 0.47. FPVSVTTISPNIYGQPNTWC showed an amyloid nucleation score of -1.41 ± 0.45. Substance FQCDVSCSVYKSWEMFQGIT has an amyloid nucleation score of 0.164 ± 0.8. For FQCSYVWVKLWHILN, the amyloid nucleation score was -0.887 ± 1.1. In the case of FQDTLDLRRLRYWCYPKLGL, the amyloid nucleation score is reported as -0.69 ± 0.55. For FQGVVSRYSYYS, the amyloid nucleation score was 1.81 ± 0.22. FQIMKAYDTLPFLVYPVTGD showed an amyloid nucleation score of -0.117 ± 0.79. For FQSDIKVIIMSTCTISGGRY, the amyloid nucleation score was 1.33 ± 0.25. Substance FRALFSNVVRVDMAMAAGFL has an amyloid nucleation score of -1.79 ± 0.78. Work on FREGSSIGFVLPTENVLMT yielded an amyloid nucleation score of 0.256 ± 1. Work on FRFCHCLEFQVY yielded an amyloid nucleation score of 0.126 ± 0.5. Work on FRKCI yielded an amyloid nucleation score of 1.25 ± 0.38. FRRFCQDILYICMRKDMVQG showed an amyloid nucleation score of 0.833 ± 0.8. For FRRRQNRAHKYGALNYSMGS, the amyloid nucleation score was “inactive”. In the case of FRTQCHRAMDRASCRVLVRP, the amyloid nucleation score is reported as “inactive”. FRVGLLVGISMVDFTLGVNA showed an amyloid nucleation score of 0.416 ± 0.8. With FRVSSIWDRLVATLGNMCRS the amyloid nucleation score was “inactive”. Work on FRYERTGRAMSTASVVTTTV yielded an amyloid nucleation score of 1.04 ± 0.68. For FRYLYVLYGFYMVVTWYLRV, the amyloid nucleation score was -0.088 ± 0.63. Work on FSIISGCFRNVVDLLRMLNL yielded an amyloid nucleation score of -1.2 ± 1.1. FSLFWWMSHITREWISCMCM gave an amyloid nucleation score of -0.895 ± 1.1. In the case of FSMMFIL, the amyloid nucleation score is reported as 3.57 ± 0.075. Work on FSMRFRKVFICKMDIQQAYV yielded an amyloid nucleation score of 0.13 ± 1.1. For FSNLPGH, the amyloid nucleation score was 1.98 ± 0.15. FSPIYRHGHKCML gave an amyloid nucleation score of -0.672 ± 0.54. With FSPLCYSYV the amyloid nucleation score was -1.22 ± 1. For FSQFMKLNSRFIRRYMWCVL, the amyloid nucleation score was -0.891 ± 0.55. For FSRTTAHMTLDMYFTGRDGY, the amyloid nucleation score was 5.79 ± 0.058. For FSSFVNREKMFIHFSNVVYF, the amyloid nucleation score was 1.44 ± 0.1. FSSIDPPNTRSAVSFRMTSP gave an amyloid nucleation score of 0.065 ± 0.65. In the case of FSVRGRWAHLWMK, the amyloid nucleation score is reported as 0.443 ± 0.42. FSVTMF gave an amyloid nucleation score of -0.197 ± 0.33. In the case of FSVYRETERLGMSFRVRLWM, the amyloid nucleation score is reported as 5.25 ± 0.073. With FSWFDWKGYVLSWIRSYSSE the amyloid nucleation score was “inactive”. FSWVIYYE showed an amyloid nucleation score of -1.27 ± 1.1. FSYMYPRGLLVINMSGVQVN showed an amyloid nucleation score of 1.22 ± 0.17. With FTCAYA the amyloid nucleation score was “inactive”. Work on FTFIHFLCVSVHLLNSWS yielded an amyloid nucleation score of 0.42 ± 0.56. Work on FTGIRRGLWLS yielded an amyloid nucleation score of 0.405 ± 0.56. FTLDNMSLQTRTLMRYE showed an amyloid nucleation score of -0.863 ± 0.49.
